According to patent US20220152204A1, “PHOTOIMMUNOTHERAPY AND PHARMACEUTICAL AGENT USED THEREFOR” (SHIMADZU CORPORATION, priority 2019, published 2022):
Ends that are not written are not given here.

Key:
[1] = test system: xenograft model animals implanted with A431; experiment: Mouse experiment: fluorescent intensity monitoring of pharmaceutical agent accumulation in A431 xenograft model animals; assay type: in vivo; settings: A431 xenograft mice, 0.033 μmol, Pearl Imager, monitored up to 180 min
Description: Five xenograft model animals implanted with A431 were treated with 0.033 μmol IF7C-IR700, and the fluorescent intensity of body surface, tumor and liver of the mice was monitored at 10 min intervals for up to 60 min and at 30 min intervals for up to 180 min with a Pearl Imager (LI-COR Bioscience) to check for accumulation of pharmaceutical agent. The fluorescent intensity over the tumor reached a maximum at 60 min, so exposure to therapeutic light was performed 60 min after pharmaceutical agent injection to carry out NIR-PIT with IF7C-IR700. For the PIT, exposure to NIR light was performed under conditions which enable cleavage of the IR700, at a wavelength of 680 nm to 690 nm and a dose of 10 J/cm^2.

[2] = test system: Epidermal cancer cells (A431); experiment: Observation under fluorescent microscope of A431 cells before and after 690 nm laser exposure; assay type: cell-based; settings: 20 μg added, 10 minutes at 37° C., 690 nm laser at 50 J
Description: Epidermal cancer cells (A431) were placed at 10,000 cells/mL into a 3.5 mm dish and incubated for 1 day. Subsequently, 20 μg of IF7C-IR700 or IR700 was added to the respective dish and incubation was performed for 10 minutes at 37° C.
Exposure to a 690 nm laser was performed at 50 J, and the A431 cells before and after exposure were observed under a fluorescent microscope (IX61 or IX81; Olympus America). […] From this, it can be inferred that IF7C-IR700 is internalized by cells and undergoes a reaction, causing the cells to shrink.

IF7C-IR700: IF7-C peptide (IFLLWQRC, SEQ ID NO: 6) conjugated with IR700 maleimide via the cysteine SH residue (IFLLWQRC(IR700 maleimide))
time at which fluorescent intensity over the tumor reached a maximum [1]: 60 min
cell shrinkage observed under fluorescent microscope after exposure [2]: the cells had shrunk
